Laboratory results published in PMC4156536.

Biological target: RyR1 with a His10 tag inserted at position 500 (His^500-RyR1) (rabbit) (UniProt P11716)
Assay: FRET or BRET

Sequence of UniProt P11716 (P11716 whole entry): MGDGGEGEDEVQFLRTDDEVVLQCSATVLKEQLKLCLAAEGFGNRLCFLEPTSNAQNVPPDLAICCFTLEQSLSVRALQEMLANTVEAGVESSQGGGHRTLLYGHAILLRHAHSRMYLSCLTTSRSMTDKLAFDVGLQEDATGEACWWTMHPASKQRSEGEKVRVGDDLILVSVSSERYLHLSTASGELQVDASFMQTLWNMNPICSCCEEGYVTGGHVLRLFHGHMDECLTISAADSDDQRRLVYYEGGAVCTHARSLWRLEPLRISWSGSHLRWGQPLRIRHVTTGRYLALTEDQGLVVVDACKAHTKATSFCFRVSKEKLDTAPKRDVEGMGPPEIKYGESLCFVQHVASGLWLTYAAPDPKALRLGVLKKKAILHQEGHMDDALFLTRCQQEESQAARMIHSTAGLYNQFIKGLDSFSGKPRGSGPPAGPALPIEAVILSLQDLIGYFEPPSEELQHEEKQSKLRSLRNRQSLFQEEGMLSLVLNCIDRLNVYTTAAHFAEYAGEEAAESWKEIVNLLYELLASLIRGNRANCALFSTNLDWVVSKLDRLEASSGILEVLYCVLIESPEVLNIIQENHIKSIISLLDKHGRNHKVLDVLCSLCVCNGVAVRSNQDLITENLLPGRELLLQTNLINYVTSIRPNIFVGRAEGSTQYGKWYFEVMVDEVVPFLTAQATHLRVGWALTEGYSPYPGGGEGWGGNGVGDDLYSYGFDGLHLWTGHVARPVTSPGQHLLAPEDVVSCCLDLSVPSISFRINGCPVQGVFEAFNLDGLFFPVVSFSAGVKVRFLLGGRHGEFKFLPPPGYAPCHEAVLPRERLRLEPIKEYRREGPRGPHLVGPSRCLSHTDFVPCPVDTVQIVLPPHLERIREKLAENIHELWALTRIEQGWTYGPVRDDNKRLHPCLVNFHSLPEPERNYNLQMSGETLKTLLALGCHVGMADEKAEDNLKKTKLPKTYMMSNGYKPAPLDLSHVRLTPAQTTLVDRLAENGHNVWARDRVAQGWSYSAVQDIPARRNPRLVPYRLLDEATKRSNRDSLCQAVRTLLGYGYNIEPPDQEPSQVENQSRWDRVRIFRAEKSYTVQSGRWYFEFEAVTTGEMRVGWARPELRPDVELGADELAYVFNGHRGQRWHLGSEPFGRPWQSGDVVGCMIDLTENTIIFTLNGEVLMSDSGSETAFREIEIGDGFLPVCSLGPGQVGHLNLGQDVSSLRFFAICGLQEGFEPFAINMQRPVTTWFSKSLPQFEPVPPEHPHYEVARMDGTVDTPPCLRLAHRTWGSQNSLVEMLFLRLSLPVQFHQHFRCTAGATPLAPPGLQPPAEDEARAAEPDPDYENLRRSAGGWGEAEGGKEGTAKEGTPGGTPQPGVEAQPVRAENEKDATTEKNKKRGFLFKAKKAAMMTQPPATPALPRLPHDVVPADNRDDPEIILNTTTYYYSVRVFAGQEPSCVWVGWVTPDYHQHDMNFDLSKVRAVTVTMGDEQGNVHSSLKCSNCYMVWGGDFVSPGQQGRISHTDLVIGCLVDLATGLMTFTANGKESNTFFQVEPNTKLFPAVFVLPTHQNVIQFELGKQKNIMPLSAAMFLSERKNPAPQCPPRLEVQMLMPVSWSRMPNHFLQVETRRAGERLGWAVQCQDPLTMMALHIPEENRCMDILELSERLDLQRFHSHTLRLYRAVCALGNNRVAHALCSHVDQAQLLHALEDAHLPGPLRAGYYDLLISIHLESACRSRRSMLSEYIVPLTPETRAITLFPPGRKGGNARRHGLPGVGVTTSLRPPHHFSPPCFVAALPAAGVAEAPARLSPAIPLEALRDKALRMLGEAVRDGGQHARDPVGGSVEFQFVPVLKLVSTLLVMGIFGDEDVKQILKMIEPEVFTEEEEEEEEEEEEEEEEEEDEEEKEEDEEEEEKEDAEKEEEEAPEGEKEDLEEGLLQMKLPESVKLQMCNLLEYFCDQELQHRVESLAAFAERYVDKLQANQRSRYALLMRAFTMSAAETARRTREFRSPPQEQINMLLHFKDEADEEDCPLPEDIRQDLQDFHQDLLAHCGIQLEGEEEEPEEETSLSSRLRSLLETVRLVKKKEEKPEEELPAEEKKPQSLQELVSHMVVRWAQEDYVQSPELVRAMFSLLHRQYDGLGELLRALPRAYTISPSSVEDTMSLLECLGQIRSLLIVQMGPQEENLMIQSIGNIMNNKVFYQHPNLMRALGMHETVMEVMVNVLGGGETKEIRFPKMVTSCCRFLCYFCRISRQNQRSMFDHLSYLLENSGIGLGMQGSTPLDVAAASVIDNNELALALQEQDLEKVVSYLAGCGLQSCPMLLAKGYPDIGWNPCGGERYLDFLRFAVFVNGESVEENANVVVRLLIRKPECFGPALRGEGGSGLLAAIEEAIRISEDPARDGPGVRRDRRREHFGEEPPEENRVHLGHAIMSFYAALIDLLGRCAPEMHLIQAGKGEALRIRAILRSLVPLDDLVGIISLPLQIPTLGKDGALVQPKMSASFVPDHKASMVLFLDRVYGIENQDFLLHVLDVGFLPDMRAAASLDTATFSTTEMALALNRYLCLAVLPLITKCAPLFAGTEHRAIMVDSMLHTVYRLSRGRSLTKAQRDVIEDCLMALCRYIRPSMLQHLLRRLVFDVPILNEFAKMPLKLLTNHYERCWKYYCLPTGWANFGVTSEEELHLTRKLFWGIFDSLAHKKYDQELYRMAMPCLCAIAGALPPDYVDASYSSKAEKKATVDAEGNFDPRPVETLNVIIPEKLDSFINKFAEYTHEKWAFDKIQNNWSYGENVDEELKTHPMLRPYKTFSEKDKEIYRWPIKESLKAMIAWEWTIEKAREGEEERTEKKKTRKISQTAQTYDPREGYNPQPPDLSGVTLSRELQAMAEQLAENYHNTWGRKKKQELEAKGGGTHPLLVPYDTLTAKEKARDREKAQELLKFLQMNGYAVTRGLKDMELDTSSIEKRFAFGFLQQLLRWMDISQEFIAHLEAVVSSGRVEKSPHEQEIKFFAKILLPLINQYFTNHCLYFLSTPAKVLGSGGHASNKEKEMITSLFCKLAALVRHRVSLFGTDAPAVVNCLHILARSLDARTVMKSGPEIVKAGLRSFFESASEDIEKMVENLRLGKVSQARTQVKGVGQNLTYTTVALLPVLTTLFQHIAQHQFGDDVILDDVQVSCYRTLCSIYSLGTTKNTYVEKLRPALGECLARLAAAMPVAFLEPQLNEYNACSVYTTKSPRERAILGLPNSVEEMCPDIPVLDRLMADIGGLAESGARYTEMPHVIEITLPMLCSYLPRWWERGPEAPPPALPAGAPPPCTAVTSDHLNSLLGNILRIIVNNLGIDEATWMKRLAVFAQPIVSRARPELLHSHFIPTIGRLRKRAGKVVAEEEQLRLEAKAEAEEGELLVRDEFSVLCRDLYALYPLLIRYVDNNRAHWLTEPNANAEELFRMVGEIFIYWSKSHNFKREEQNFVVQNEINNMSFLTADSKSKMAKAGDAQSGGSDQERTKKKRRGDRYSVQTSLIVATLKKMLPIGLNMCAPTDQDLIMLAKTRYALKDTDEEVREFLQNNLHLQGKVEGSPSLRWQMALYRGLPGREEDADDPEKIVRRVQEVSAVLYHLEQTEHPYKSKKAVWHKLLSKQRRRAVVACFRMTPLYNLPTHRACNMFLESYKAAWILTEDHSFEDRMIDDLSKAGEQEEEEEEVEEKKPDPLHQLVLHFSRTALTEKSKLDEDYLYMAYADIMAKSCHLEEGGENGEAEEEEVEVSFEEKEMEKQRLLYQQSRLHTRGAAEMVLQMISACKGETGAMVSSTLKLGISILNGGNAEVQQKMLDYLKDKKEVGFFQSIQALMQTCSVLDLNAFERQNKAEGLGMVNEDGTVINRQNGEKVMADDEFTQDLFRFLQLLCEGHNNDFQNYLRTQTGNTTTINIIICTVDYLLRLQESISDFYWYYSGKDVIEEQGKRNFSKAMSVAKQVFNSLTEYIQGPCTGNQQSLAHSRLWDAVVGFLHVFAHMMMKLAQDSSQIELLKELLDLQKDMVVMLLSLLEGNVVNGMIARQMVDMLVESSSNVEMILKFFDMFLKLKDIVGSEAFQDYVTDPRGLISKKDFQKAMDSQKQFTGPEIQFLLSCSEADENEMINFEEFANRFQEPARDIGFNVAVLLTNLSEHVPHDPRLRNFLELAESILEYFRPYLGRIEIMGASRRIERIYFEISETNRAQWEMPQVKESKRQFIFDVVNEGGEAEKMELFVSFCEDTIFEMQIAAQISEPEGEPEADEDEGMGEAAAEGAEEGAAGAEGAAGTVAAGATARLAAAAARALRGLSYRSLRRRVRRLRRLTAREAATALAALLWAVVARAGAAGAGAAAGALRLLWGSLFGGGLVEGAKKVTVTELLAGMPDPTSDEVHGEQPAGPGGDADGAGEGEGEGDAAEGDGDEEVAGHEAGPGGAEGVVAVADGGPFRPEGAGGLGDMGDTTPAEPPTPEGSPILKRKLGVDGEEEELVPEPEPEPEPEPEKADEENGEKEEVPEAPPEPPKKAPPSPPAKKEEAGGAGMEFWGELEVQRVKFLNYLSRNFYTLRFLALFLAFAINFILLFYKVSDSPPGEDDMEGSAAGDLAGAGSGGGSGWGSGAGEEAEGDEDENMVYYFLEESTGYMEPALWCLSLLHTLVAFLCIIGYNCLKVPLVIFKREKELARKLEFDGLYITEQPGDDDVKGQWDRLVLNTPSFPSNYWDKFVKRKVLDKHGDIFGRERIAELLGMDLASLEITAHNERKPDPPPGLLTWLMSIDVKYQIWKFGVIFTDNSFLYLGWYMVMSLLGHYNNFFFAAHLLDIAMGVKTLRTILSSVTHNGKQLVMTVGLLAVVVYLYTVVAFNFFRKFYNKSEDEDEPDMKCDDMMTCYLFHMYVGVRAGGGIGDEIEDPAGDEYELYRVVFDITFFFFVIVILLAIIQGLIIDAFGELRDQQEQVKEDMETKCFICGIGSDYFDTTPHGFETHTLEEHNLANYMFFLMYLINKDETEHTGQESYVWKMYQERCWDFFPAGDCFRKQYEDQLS

- FRET efficiency (AF488 on FKBP to Cy3NTA on the His10 tag): 0.18
Substance: FKBP12.6 with AF488 conjugated to amino acid residue 14 (D14-FKBP) (from UniProt P68106 1-108) (natural protein)
